Results reported in patent US6835824.

Molecular target: nine-person peanut-specific IgE antibody pool (pooled serum of patients with AD and positive peanut challenge)
Assay: IgE ELISA inhibition, crude peanut coated, pooled serum

- IC50: 5.5 ng/mL
B1: Ara h I, 63.5 kD peanut allergen, native, purified from Florunner peanut extract (protein, Arachis hypogaea, UniProt P43238 85-626, looked up)
chain: RSPPGERTRGRQPGDYDDDRRQPRREEGGRWGPAGPREREREEDWRQPREDWRRPSHQQPRKIRPEGREGEQEWGTPGSHVREETSRNNPFYFPSRRFSTRYGNQNGRIRVLQRFDQRSRQFQNLQNHRIVQIEAKPNTLVLPKHADADNILVIQQGQATVTVANGNNRKSFNLDEGHALRIPSGFISYILNRHDNQNLRVAKISMPVNTPGQFEDFFPASSRDQSSYLQGFSRNTLEAAFNAEFNEIRRVLLEENAGGEQEERGQRRWSTRSSENNEGVIVKVSKEHVEELTKHAKSVSKKGSEEEGDITNPINLREGEPDLSNNFGKLFEVKPDKKNPQLQDLDMMLTCVEIKEGALMLPHFNSKAMVIVVVNKGTGNLELVAVRKEQQQRGRREEEEDEDEEEEGSNREVRRYTARLKEGDVFIMPAAHPVAINASSELHLLGFGINAENNHRIFLAGDKDNVIDQIEKQAKDLAFPGSGEQVEKLIKNQKESHFVSARPQSQSQSPSSPEKESPEKEDQEEENQGGKGPLLSILKAFN
modifications: glycoprotein
